Measured values: publication PMC6381284

Molecular target: KSHV glycoprotein H/glycoprotein L (gH/gL) (Kaposi's sarcoma-associated herpesvirus (KSHV)) (UniProt F5HAK9)
Sequence of UniProt F5HAK9 (F5HAK9 whole entry, looked up): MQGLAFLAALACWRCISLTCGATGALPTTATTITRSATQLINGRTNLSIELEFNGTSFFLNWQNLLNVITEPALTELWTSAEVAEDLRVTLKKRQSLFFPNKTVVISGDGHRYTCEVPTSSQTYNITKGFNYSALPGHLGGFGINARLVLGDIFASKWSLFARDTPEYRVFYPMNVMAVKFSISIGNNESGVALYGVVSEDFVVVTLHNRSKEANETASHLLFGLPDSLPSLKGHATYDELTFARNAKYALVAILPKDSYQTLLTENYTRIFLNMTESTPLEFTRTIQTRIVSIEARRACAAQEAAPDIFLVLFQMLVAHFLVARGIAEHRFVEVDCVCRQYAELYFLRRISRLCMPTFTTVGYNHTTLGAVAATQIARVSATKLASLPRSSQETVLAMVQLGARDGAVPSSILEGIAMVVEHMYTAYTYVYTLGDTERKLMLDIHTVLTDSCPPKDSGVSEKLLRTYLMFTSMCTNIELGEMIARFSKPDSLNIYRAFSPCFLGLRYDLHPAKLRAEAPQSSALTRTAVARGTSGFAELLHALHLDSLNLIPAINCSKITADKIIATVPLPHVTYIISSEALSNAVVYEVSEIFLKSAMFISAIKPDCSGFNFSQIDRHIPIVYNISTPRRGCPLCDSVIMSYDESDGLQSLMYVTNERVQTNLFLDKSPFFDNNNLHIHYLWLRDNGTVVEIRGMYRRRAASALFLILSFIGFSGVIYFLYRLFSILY

Soluble EphA4-Fc (from UniProt P54764 20-547) (Fc fusion)
virus-free cell-cell fusion (luciferase): CHO-K1 cells with EBV gB and KSHV gH/gL overlaid with HEK293T cells overexpressing membrane EphA4, compared with cells overexpressing EphA2 (% more fusion than with EphA2): 33
